Test results reported in patent publication US20240041922A1, “METHODS AND COMPOSITIONS” (Monash University, priority 2020, published 2024).

Target: zebrafish Ccr5 (Ccr5-like, on pax3a+ muscle stem cells of larval zebrafish) (zebrafish)
Experiment: cell-based or functional assay

wound site proliferation in larval zebrafish (EdU): 28.3%
Substance: recombinant murine CCL8/MCP-2 (PeproTech) (from UniProt Q9Z121 24-97) (ligand)
cell proliferation external to the site of injury in larval zebrafish (EdU): 43%
